We go through one substance from patent US20130184442A1.

pKd: −log10 of the molar value.

What is called pKd is the Kd on a negative log10 scale, so that one unit is a factor of ten. Low values mean a large Kd, high ones a small Kd.

Common to all, as to assay: SPR (Biacore 2000), antibody immobilized on CM5 chip, Langmuir 1:1 model
For orientation: In SPR one partner is held on a chip, and binding of the other changes the refractive index at the surface.

The target in assay [1] is anti FITC-BSA mouse IgG2a (monoclonal, BioInvent International AB).
Assay [2] has as its target anti FITC-BSA human IgG1 (monoclonal, BioInvent International AB).
The target in another assay is polyclonal rabbit IgG.

“Zwt (recombinantly produced parental Z domain) (designed binder)”: the pKd in assay [1] was 6.26; in assay [2], 7.70; with polyclonal rabbit IgG it was 7.22.
